Results from the DeepSol protein solubility set.

Assay: soluble on expression in E. coli; label from the status in PepcDB or PDB records

Row | Sequence | soluble on expression in E. coli
1 | MGSDKIHHHHHHMTMLSTPQPTLADLAIEPGLPTVVSPRAGAAISLEEAAPLLRAIVDDTLERAGGVLFTGFHVASIDAFQSFAGSFGHPLIGYEFASTPRSQVEGAVYTSTEYPPHRSIPLHNEQSYTREWPLRIWFHCALAARSGGATPIADSRAIYRALDPALVDRFAKRELLYVRNFGQGLDLPWEQAFGSADPRTVERICRARGIECEWRDSEDGELLLRTRERCQAVARHPRTGEHVWFNQANLFHLSSLDEDMQEALIDSVGLENVPRNVYYGDGEPLEADALAEIRGVLDQQRIVFPWLTGDVLMLDNMLSAHARDPFEGPRKVVVAMARSYSEAEGEKRTAAP | not soluble
2 | MSEKPQQEEQEKPQSRRNSFAVIEFTPEVLDRCLKQVEFYFSEFNFPYDRFLRTTAEKNDGWVPISTIATFNRMKKYRPVDKVIEALRSSEILEVSADGENVKRRVPLDLTAARNARIEQNQRTLAVMNFPHEDVEASQIPELQENLEAFFKKLGEINQVRLRRDHRNKKFNGTVLVEFKTIPECEAFLKSYSNDDESNEILSYEGKKLSVLTKKQFDLQREASKSKNFSGRSRSFNGHKKKNLPKFPKNKKKNGKEESKEDSSAIADDDEEHKE | soluble
3 | MQLDVYGYVVETLYLAHQSGVARCGDTAVLHQRLVEHLAERWQMPDEGIWEVRGERRHFVHSKVMAWAVVDRTIRLVEAGALDAGLCALMELREAIRHEVCTRGFEP | not soluble
4 | AIASQFDPDKFKQEQKARWNQGARSTWTLWKQTQVEDTPAKFFLGLVPIRPGVKVLDLACGSGETSLQVAQLVSSHLPSDSKDAKIVCVDISEEMLRVLSQRAQELGLSSVVETCCEDAENINFGTHYFDMVMSQFGVMFLPHLPEDLANIRKMMKPGSLFCCVVWGEEKDCHIFYAARSVVSPPPPPPGTPVSYGTKEKVMEALRKAEFSDVKAVEFQVVHETKDAEEYITLMSGVNQWLEKSLGEKGSGPWQKLVEYCNNSYRTSRGTLQFPNVCVGITAIA | soluble
5 | MQASELTPKWYVAPVSIKDEAVVKNLKAKIQALGFNHEIVDVKVLKEREVHEEVYSLKSGKLPRSLKNTTFNKWFVLDDYRYLRVKISEKNLLGRYIYIKMIYSEDAWRIVRNFPGITGIVGSSGRGALPIPLDEKDANNLEQMLKGISINPSKRIMLTNTAIIEMDSDKFDEKFQYILKQKQAIQKPKEDEDSEIVDAEKLKEAFKKLQNSQEQDEWKEKATIIQSEQTKLDPSVLVPFLGKYEILDTDNKVEQLFEFSVGNLVEVHLTDTIHVQGQIKALYQGTVNKAVVEIELTSKTQLINLPLENLSFVEFE | soluble
6 | MAHHHHHHMVDRIEATLNRLIAFGPGTASYTDDAAFLQNVASAMEVAGEIPVLTEACMSLSVDLLENSSPQSAATHAVLTLLACCCMRDDNRELASRFGIFSLCVLLLRSSELLCKDTLLTIFDLIGTLCMSSASTRQMMRPCIPYVLGVMRTHPDCFQLCFSGAVVIGTLVMLDAANAELAAENDCVQILLTAFMRGHDKRKELLNRRRTSYSLRCQREEDESRRLCDNVIRWTEDALQKLVLAPSPVIDAKLEAADFGNYGDRVEVDELMWKLKFGRGKM | not soluble
7 | AHHHHHHGSKVVIVGNGPGGFELAKQLSQTYEVTVIDKEPVPYYSKPMLSHYIAGFIPRNRLFPYSLDWYRKRGIEIRLAEEAKLIDRGRKVVITEKGEVPYDTLVLATGARAREPQIKGKEYLLTLRTIFDADRIKESIENSGEAIIIGGGFIGLELAGNLAEAGYHVKLIHRGAMFLGLDEELSNMIKDMLEETGVKFFLNSELLEANEEGVLTNSGFIEGKVKICAIGIVPNVDLARRSGIHTGRGILIDDNFRTSAKDVYAIGDCAEYSGIIAGTAKAAMEQARVLADILKGEPRRYNFKFRSTVFKFGKLQIAIIGNTKGEGKWIEDNTKVFYENGKIIGAVVFNDIRKATKLEKEILDFYS | soluble
8 | MEWKDIKGYEGHYQVSNTGEVYSIKSGKTLKHQIPKDGYHRIGLFKGGKGKTFQVHRLVAIHFCEGYEEGLVVDHKDGNKDNNLSTNLRWVTQKINVENQMSRGTLNVSKAQQIAKIKNQKPIIVISPDGIEKEYPSTKCACEELGLTRGKVTDVLKGHRIHHKGYTFRYKLNG | soluble
9 | MQLNKVLKGLMLALPVLAVAACSSNKSANNDQSGMGAGTGTENGSNLSSEEQARLQMQELQKNNIVYFGFDKYDIGSDFAQMLDAHAAFLRSNPSDKVVVEGHADERGTPEYNIALGERRASAVKMYLQGKGVSADQISIVSYGKEKPAVLGHDEAAFAKNRRAVLVY | not soluble
10 | MESSGKSSANPNLLAETLTTMQAQLQTQTEISQQVMEDNKNQSALLKQQREMSQALLEENKRLRAAQGDQPRFVAVGEKPLNSVKLMSDLLRQLPKYHFDVSEPDSFTKWWARHKLTFTEDGAELSNRERNRMLVARLEESTFQRFVDSQRDVEDIYSVPVEDTIKALSKSFGSQRSLMIRRQSCLLISRASGASMDPLEYTNLVGEAVLDAKLSNMSTDDWSIFIFLRGMDAPEDALAKRYLMQYYEQFERKDEKLKLSDVHDEWIRYIQTQQQSKVITVTPARHPKFEVNQVDADDKKKDSRKGNYRPPYCYKCKVVGHVSKDCPQSSTNSGVTNRKTEHSEVNTLEVGSGRQTSPSLRLNVEGQQIDFTFDTGSDITLISVQNWQKIGKPHLEKVHHKICCANGTEIAVKGRVLVWFKVKGVEYTEYVYVWNRNNNLLGTSWMRHSPQMRDALAVMVNHISTVDNSKQNSHSFSRIPTGYKDRAENVGRHVVASAPRSSKRQYVRFARNKAFQIGQLCLARVQGEHDFGWIYGVVQRQVNGVLYEVQLGSRIQRIHTNQLRHICGRRSRGNDYASSFIENPCKLSLLENIPRSSCRQKFVAQGVRGEGREANPVLVSDSSVFGFSAPDLSACESVGSRSAREVVSSVAGNARNASGANITTIHVTESKSSLKKSHRRRRRVAKSRQSYTAGSSPIKETHLDPLLESDVASDGERFQPGILLRHSLRQSHPRQVVRGSAPNTDHVSTRRRGRDTASGRDAPSPGIISGFLSYKRGDVVDGT | soluble
11 | MIKFMSIASGSSGNCYYLSNGNQALLIDAGIPLRSISKALKDHQLPIEGNVVGVLVTHDHADHIRTIGCLGEKFHLPVFATERVHNGINSSRYMDHLPLLSRRNILQEETFRLAGFDITAFPIPHDATENVGYHITAPGFSFTLCTDVGHITDTISHYASKADYLVMEANYDCEMLLSGPYPEFLKERVSGPNGHLSNQETGDFLARTFHPGMKHVWLCHLSKDNNHPDLCWKSIEYRLFSEGIRVGKDMELTVLKRTSPSSLYTLLEDLEHHHHHH | soluble
12 | AVTFAVMVSDAPSLDESKLKTPYSSTIYDKNGKEIAEVGAEKRTYVSIDEIPDVVKEAFIATEDARFYEHHGIDPVRIGGALVANFKDGFGAEGGSTITQQVVKNSLLSHQKTLKRKVQEVWLSIQLERNYSKDEILEMYLNRIYFSPRAYGIGKAAEEFFGVTDLSKLTVEQAATLAGMPQSPTAYNPVKNPDKAEKRRNIVLSLMKKQGFISDSQYNKAKKVAVKDEGVVSQKEYEKASTNKYSAFVEEVMKEIDEKSDVDPSADGLKIYTTLDTKAQDKLDELMDGDTVGFTEGMQGGVTLLDTKNGEVRAIGAGRNQPVGGFNYATQTKAQPGSTIKPILDYGPVIENKKWSTYEQIDDSAYTYSNGKPIRDWDRKYLGPISMRYALAQSRNIPALKAFQAVGKDTAVDFANGLGLGLTKDNVTEAYSIGGFGGNDGVSPLTMAGAYSAFGNNGTYNEPHFVKSIEFNDGTKLDLTPKSKSAMSDYTAFMITDMLKTAVKTGTGQLAQVPGVEVAGKTGTTNFDDNEVKRYNIASGGARDSWFVGYTPQYTAAVWTGMGENEAGKKSLSAEEQKVAKRIFAQLIADVDDGSGSFEKPDSVVEATVEKGSNPAKLAGPNTPSDKKLTEYFVKGTAPSTVSKTYEKEEKEETAKLSGLNVKYDKDNQSLTLSWNYDGDATFAVKQSVDGGSYSEIQNSSAKEAVISGVQPGSVYKFEVTAVSDDGKSTASTSYEVPKAEDDEDKKDQQQTDDEKQDDEKTQDDTQTDDSQKDDGQTDQDQTDDSTNDQDKKQDNTNTNPSDNNNQDQSNDNDNDNSNNQDTSDGDSNSGKNDSTGSDTNKNKTDTSNKTQTNSSSIEKT | not soluble
13 | MGHHHHHHSHNLGPRLTPLLQEEDSHQRLLMGLMVSELKDHFLRHLQGVEKKKIEQMVLDYISKLLDLICHIVETNWRKHNLHSWVLHFNSRGSAAEFAVFHIMTRILEATNSLFLPLPPGFHTLHTILGVQCLPLHNLLHCIDSGVLLLTETAVIRLMKDLDNTEKNEKLKFSIIVRLPPLIGQKICRLWDHPMSSNIISRNHVTRLLQNYKKQPRNSMINKSSFSVEFLPLNYFIEILTDIESSNQALYPFEGHDNVDAEFVEEAALKHTAMLLGL | not soluble
14 | MSLERAKNSDLLRESLTTEELLLISNFAKKKGADSVFFKIIEKLDLKFRLSSFGLEVKNFLMKSKLTGDELTKLTPEILKNKTYENKKFRAYNIHIPSAKTFIGRANSYLDYISKIKDKLVGLGFQEFDGPLVETEFFNNDALFMPQFHPSRDIKDVYYISDPSMQESLPEPYFSNVKLAHETGYATGSRGWRYSFSEDLSKRLVLRTHGTVLSAKQLINAKNPSRYFGVIRCFRYDQVDATHGVDFYQTEGIVIEDGVSIKTLLGLLEIFAKELAGATEIKYVPAYFPFTEPSIEIHVKHPVLGWFELGGSGIFRPEVTKPLGIDLPVIAWGIGIDRMALMHLGLNDLRDLFTYDIGDVILRRGKIDAKVRNEGHHHHHH | not soluble
15 | MAHHHHHHSLITTYKTITSSTQAEFKDKGSRFIAFAYPIRTLADVKKYLDPLKEEHHKARHWCYAYRLGVDGMQFRANDDGEPSGSAGRPILGQIDSVGITDVLVVVVRYFGGTLLGVPGLIHAYKEATAQALAVAEVVEKNIEKTVWLKCEYPFLNEAIRIAKQYQADILERDLQLDCRLTVSLSLVNYEACVAAWKNTRQIEVNTEKPFEEG | soluble
16 | MSLNAKPKDTVIANARIVLADRVIEQGWLALANGRVAEIGEGRAPAGAEDAGGDLIMPGLIELHTDHLEAHYVPRPKVFWNPVAAVVSYDGQLATSGITTVFDSLRVWREDGAEEVDGRAGVLAAAITTARDADLLRADHFLHLRCEIPMPSVVEEAKELIDRPDVKLMSLMDHTPGQRQFRDEGKLRDYYRGKNGGKTDAQLDELFAKRFEYQKAYAATNMREIVALAHQYNIPLASHDDTTEENVADAVRDRVSVAEFPTTLEAARGLHQAGIDILMGAPNVVRGGSHSGNIAAVDLAREGLLDILSSDYIPSSLLMAALQLPEHVPAISLPAAVRTVTKAPAEAVGLSDRGEIAVGKRADLIRVHIAGSVPVVRSVWREGGRVAEGHHHHHH | soluble
17 | MVQEIIVDSGDIEFLTTPKEYKQQLLSLIECARQRIFITALYLQDDEAGREILHALYQAKANFPTIEINIFVDFNRGQRGLIGEKASLGNRALYLKLAHEYPHTVNIYGVAVKRKEVFGVLHLKGMVFDEKLFYTGASINDIYLHQGERLEHHHHHH | not soluble
18 | MAPALVQRRKKVAMIGSGMIGGTMGYLCALRELADVVLYDVVKGMPEGKALDLSHVTSVVDTNVSVRAEYSYEAALTGADCVIVTAGLTKVPGKPDSEWSRNDLLPFNSKIIREIGQNIKKYCPKTFIIVVTNPLDCMVKVMCEASGVPTNMICGMACMLDSGRFRRYVADALSVSPRDVQATVIGTHGDCMVPLVRYITVNGYPIQKFIKDGVVTEKQLEEIAEHTKVSGGEIVRFLGQGSAYYAPAASAVAMATSFLNDEKRVIPCSVYCNGEYGLKDMFIGLPAVIGGAGIERVIELELNEEEKKQFQKSVDDVMALNKAVAALQAPG | soluble
19 | MTQHQTLPQTTEGAYHYQVIRRAIELIDQTDQPISLDEIAANMGMSPAHFQRVFSRWVGVSPKRYQQYLTLGHAKTLLSERFSTLAASHAVGLSGSGRLHDLFLRWEAMSPGEFARKGAGLTIYWGWFESPFGPAIVMGTEKGICGMGFAAEMGAETAFEDLAARWPQASYVEDPMMLRPWVLQAFGAKDGALDTTPLFLIGAPFQIKVWEALLSIPTGHVTTYSEIAQAVGAPRAVRAVGTAVGRNPISWIIPCHRALRKSGGLGGYHWGIPMKRAMLAYEAVELETLEHHHHHH | not soluble
